Measurements as given in the nanobody polyreactivity screen of Harvey et al. (2022).

Assay: yeast display, Sf9 membrane polyspecificity reagent, FACS + sequencing; frameworks hold sequencing errors
Summary of the method: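 Galactose-induced (36–48 hours) yeast carrying a synthetic nanobody display library were exposed to 10% biotinylated, detergent-solubilized Sf9 membrane reagent at 4 °C for 1 hour. FACS followed streptavidin microbead enrichment, using low and high (top ~1%) gates for expression (anti-HA) and reagent binding (streptavidin). Colony PCR, MiSeq 2 × 250 sequencing and CDR-length filtering followed. Labels for polyreactivity reflect the gate of origin.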

| Sequence | polyreactivity (PSR sort gate) |
| --- | --- |
| QVQLVESGGGLVQAGGSLRLSCAASGSTFIANTMGWYRQAPGKERELVAAITDSGGSTYYADSVKGRFTISRDNAKNTVYLQMNSLKPEDTAVYYCNADYVYVFIRAWSYDYWGQGTQVTVSS | low polyreactivity |
| QVQLVESGGGLVQAGGSLRLSCAASGSTFIFNAMGWYRQAPGKERELVAAISWRVGRTYYADSVKGRFTISRDNAKNTVYLQMNSLKPEDTAVYYCAAPKSSTGHYYSWGQGTQVTVSS | low polyreactivity |
| QVQLVESGGGLVQAGGSLRLSCAASGSTFIFYAMGWYRQAPGKERELVATISGGGSTYYADSVKGRFTISRDNAKNTVYLQMNSLKPEDTAVYYCATDVQVPGIGRSVYAYEYWGQGTQVTVSS | low polyreactivity |
| QVQLVESGGGLVQAGGSLRLSCAASGSTFIFYSMGWYRQAPGKERELVAAITSSGGSTYYADSVKGRFTISRDNANNTVYLQMNSLKPEDTAVYYCITLAYTYGSKFGYWGQGTQVTVSS | low polyreactivity |
| QVQLVESGGGLVQAGGSLRLSCAASGSTFIFYTLGWYRQAPGKERELVAAITSNGGSTYYADSVKGRFTISRDTAKKTVYLQMNSLKPEDTAVDYCAKKGVGQYDWGQGTQVTVSS | high polyreactivity |
| QVQLVESGGGLVQAGGSLRLSCAASGSTFIGNAMGWYRQAPGKERELVADISWSTASTYYADSVKGRFTISRDNAKNTVYLQMNSLKPEDTAVYYCARDPFVYLYLVDYDYWGQGTQVTVSS | low polyreactivity |
| QVQLVESGGGLVQAGGSLRLSCAASGSTFIGYAMGWYRQAPGKERELVAAISRSDGSTYYADSVKGRFTISRDNAKNTVYLQMNSLKPEDTAVYYCNADYYRWYDYWGQGTQVTVSS | low polyreactivity |
| QVQLVESGGGLVQAGGSLRLSCAASGSTFIGYDMGWYRQAPGKERELVAAISYSDGTYYADSVKGRFTISRDNAKNTVYLQMNSLKPEDTAVYYCAAVSLYYRYDYWGQGTQVTVSS | low polyreactivity |
| QVQLVESGGGLVQAGGSLRLSCAASGSTFIGYTMGWYRQAPGKERELVAAIRYSSGRTYYADSVKGRFTISRDNAKNTVYLQMNSLKPEDTAVYYCAAANPRDHRGANDYWGQGTQVTVSS | high polyreactivity |
| QVQLVESGGGLVQAGGSLRLSCAASGSTFIIYAMGWSRQAPGKERELVAAITRDGSTYADSVKRRFTISRDNAKNTVYLQMNRLKPEDTAVYYCAATSRQGYDYWGQGTEVTVSS | high polyreactivity |
| QVQLVESGGGLVQAGGSLRLSCAASGSTFIIYAMGWYRQAPGKERELVAAITWRGGTTYYADSVKGRFTISRDNAKNTVYLQMNSLKPEDTAVYYCNAKFGYPFVDYDDYWGQGTKVTVSS | low polyreactivity |
| QVQLVESGGGLVQAGGSLRLSCAASGSTFIKNAMGWYRQAPGKERELVAAISSSASSTYYADSVKGRFTISRDNAKNTVYLQMNSLKPEDTAVYYCAARASRKYNYWGQGTQVTVSS | high polyreactivity |
| QVQLVESGGGLVQAGGSLRLSCAASGSTFINYAMGWYRQAPGKERELVAAISRSGGTTYYADSVKGRFTISRDNAKNTVYLQMNSLKPEDTAVYYCNATLGSYARTRYYYWGQGTQVTVSS | high polyreactivity |
| QVQLVESGGGLVQAGGSLRLSCAASGSTFINYAMGWYRQAPGKERELVAAISSSGGRTYYADSVKGSFTISRDNAKNTVYFLMNSLKPEDTAVYYCAASGRKNGMNYWGQGTLVTVSS | high polyreactivity |
| QVQLVESGGGLVQAGGSLRLSCAASGSTFIPNAMGWYRQAPGKERELVATIRSGGGRTYYADSVKGRFKISRDNAKNTVYLQMNSLKPEDTAVYYCAAGYYLSVQVYRFDYWGQGTQVTVSS | high polyreactivity |
| QVQLVESGGGLVQAGGSLRLSCAASGSTFIQNAMGWYTQAPGKERELVAAITSGGGTNYADSVKGRFTISRDNAKNTVYLQMNSLKPEDTAVYYCAAEPFNYVEFWFGWEYQYDYWGQGTQVTVSS | low polyreactivity |
| QVQLVESGGGLVQAGGSLRLSCAASGSTFIQYAMGWSRQAPGNERELVASIRWIGGSTYYADSVKGRFTISRDNAKNTVYLQMNSLKAEDTAVYYCAAGYEYVENGVDWYEYDYWGQGTQVTVSS | low polyreactivity |
| QVQLVESGGGLVQAGGSLRLSCAASGSTFIRNAMGWYRQAPGKERELVAAINSGGNTYYADSVKGRFTISRDNAKNTVYLQMNSLKPEDTAVYYCAKAWGTYRSVYYRGYYWGQGTQVTVSS | high polyreactivity |
| QVQLVESGGGLVQAGGSLRLSCAASGSTFIRYVMGWYRQAPGKERELVASITISVGSTYADSVKGRFTISRDNAKHTVYLQMNSLKPEDTAVYYCNARYVENTPYPYDYWGQGTQVTVSS | low polyreactivity |
| QVQLVESGGGLVQAGGSLRLSCAASGSTFITYAMGWYRQAPGKERELVAAISTGGSTYYADSVKGRFTISRDNAKNTVYLQMNSLKPEDTAVYYCNAYSSSRGSTLQYSLQYDYWGQGTQVTVSS | low polyreactivity |
| QVQLVESGGGLVQAGGSLRLSCAASGSTFIVNAMGWYRQAPGKERELVAAISRGGSTYYADSVKGRFTISRDNAKNTVYLQMNSLKPEHTAVYYCAARIWRTRRYDYWGQGTQVTVSS | high polyreactivity |

| Sequence | polyreactivity (PSR sort gate) |
| --- | --- |
| QVQLVESGGGLVQAGGSLRLSCAASGSTFIWNGIVWSRQAPGNEREWVAAITSSSTNYADSVKGRFTISRDNANNTVYVQMNSLKPEDTAVYYCAAEIYPLGSLRLGPGEYDHWGQGTQVTVSS | low polyreactivity |
| QVQLVESGGGLVQAGGSLRLSCAASGSTFIYNTMGSYRQAPGKERELVATNTDSSDSTNYADSVKGRFTISRDNAKNTVYLQMNSLKPEDTAVYYCAADGEVDIATYPSQITDYDYWGQGTQVTVSS | low polyreactivity |
| QVQLVESGGGLVQAGGSLRLSCAASGSTFKAYAMGWYRQAPGKEMELVAVITADGSTSTHYADSVKGRFTISRDNAKNTVSLQMNSLNPEDTAVYYCAAGSPYYSERYYYWGQGTQVTVSS | low polyreactivity |
| QVQLVESGGGLVQAGGSLRLSCAASGSTFKFNAMGWYRQAPGKERELVAAISRGGRTNYADSVKGRFTISRDNAKNTVYLQMNSLKPEDTAVYYCAKDVAGLFHVGALYYYWGQGTQVTVSS | low polyreactivity |
| QVQLVESGGGLVQAGGSLRLSCAASGSTFKGYAMGCYRQAPGKERELVAAISWSAGSTYYADSVKGRFTISRDNAKNTVYLQMNSLKPEDTAVYYCAKASVALRYYSYSLGRDYWGQGTQVTVSS | low polyreactivity |
| QVQLVESGGGLVQAGGSLRLSCAASGSTFKHYAMGWYRQAPGKERELVAAISERGGSTYYADSVKGRFTISRDNAKNTVYLQMNSLKPEDTAVYYCARRVSRFSKFGYWGQGTQVTVSS | high polyreactivity |
| QVQLVESGGGLVQAGGSLRLSCAASGSTFKPYTMGWYRQAPGKERELVAGISSVDSTYYADSVKGRFTISRDNAKNTVYLQMNSLKPEDTAVYYCAADTVYIFSSAINGEFGYWGQGTQVTVSS | low polyreactivity |
| QVQLVESGGGLVQAGGSLRLSCAASGSTFKPYTMGWYRQAPGKERELVAGISSVDSTYYADSVKGRFTISRDNAKNTVYLQMNSLKPEDTAVYYCNKRKWPTFTYAMNYWGQGTQVTVSS | low polyreactivity |
| QVQLVESGGGLVQAGGSLRLSCAASGSTFKQYAMGWYRQAPGKERELVAAIDRGGSTYYADSVKGRFTNSRDNAKNTVYLQMNSLKPEDTAVYFCAARFVQYLYAYDYWGQGTKVTVSS | low polyreactivity |
| QVQLVESGGGLVQAGGSLRLSCAASGSTFKQYAMGWYRQAPGKERELVAAISSSGSTYYADSVKGRFTISRDNAKNTVYLQMNSLKPEDTAVYYCARSRYLWYTVPPKYGYWGQGTQVTVSS | high polyreactivity |
| QVQLVESGGGLVQAGGSLRLSCAASGSTFKRNAMGWYRQAPGKERELVAAITYSGTRTYYADSVKGRFTISRDNAKNTVYLQMNSLKPEDTAVYYCAVSVPYGMDYWGQGTQVTVSS | high polyreactivity |
| QVQLVESGGGLVQAGGSLRLSCAASGSTFKRYAMGLYRQAPGKERELVASIPSAASTYYADSVKGRFSISRDNAKNTVNLQMNSLKPEDTAVYYCAASAYSALYYWYDYWGQGTQVTVSS | high polyreactivity |
| QVQLVESGGGLVQAGGSLRLSCAASGSTFKRYAMGRDRQAPGQERELVAAITWRGGSTYYADSVKGRFTISRDNAKNTVYLQMNSLKPEDTAVYYCNKASWKVGPGIGYDYWGQGTQVTVSS | high polyreactivity |
| QVQLVESGGGLVQAGGSLRLSCAASGSTFKRYAMGWYRQAHGKERELVAAISRRGGSTYYADSVKGRFTISRDNAKNTVYLQMNSLKPEDTAVYYCAARGTGNIYDYWGQGTQVTVSS | high polyreactivity |
| QVQLVESGGGLVQAGGSLRLSCAASGSTFKRYAMGWYRQAPGKERELVAAITRGGGSTYYADSVKGRFTISRDNAKNTVYLQMNSLKPEDTAVYYCNKGYRDYFTAYLSRYYWGQGTQVTVSS | high polyreactivity |
| QVQLVESGGGLVQAGGSLRLSCAASGSTFKSYAMGWYRQAPGKERELVAAINWSGGSTYYADSVKGRFTISRDNAKNTVYLQMTSLKPEDTAVYYCNAVYAVRSYDSWGQGTQVTVSS | high polyreactivity |
| QVQLVESGGGLVQAGGSLRLSCAASGSTFKSYAMGWYRQAPGKERELVAAITHRGSTYYADSVKGRFTISRDNAKNTVYLQMNSLKPEDTAVYYCAASLRAPSLGHYYYWGQGTQVTVSS | high polyreactivity |
| QVQLVESGGGLVQAGGSLRLSCAASGSTFKVYAMGWYRQAPGKERELVAAISRSGGRTYYADSVKGRFTISRDNAKNTVYLQMNSLKPEDTAVYYCNRDYTFSQGHYSGSYGYWGQGTQVTVSS | high polyreactivity |
| QVQLVESGGGLVQAGGSLRLSCAASGSTFKWYAMGWYRPAPGKEREFVAAITKTGGRTNYADSVKGRFTISRDNAKNTVYLQMNSLKPEDTAVYYCAAGYYAGIYYYWGQGTQVTVSS | high polyreactivity |
| QVQLVESGGGLVQAGGSLRLSCAASGSTFKYNAMGWYRQAPGKERELVAAITRGGRTYYADSVKGRFTISRDNAKNTVYLQMNSLKPEDTAVYYCAAKWLGTAGDDYWGQGTQVTVSS | high polyreactivity |
